From paper PMC9549148, “Validation of the binding stoichiometry between HCN channels and their neuronal regulator TRIP8b by single molecule measurements” (Frontiers in Physiology, 2022)

What was measured:
[1] = biological target: rabbit HCN4 carrying an internal deletion (from residues 783 to 1064) (rabbit) (UniProt Q9TV66); assay: mass photometry; Refeyn OneMP; SEC peak fractions of the co-purified HCN4 - EGFP-TRIP8b complex in LMNG-CHS, 1 μL at 200 nM added to 10 μL buffer at room temperature, 60 s recording; no cAMP
[2] = biological target: the molecule itself; assay: mass photometry; Refeyn OneMP; the same co-purified HCN4 - EGFP-TRIP8b complex with 2 mM cAMP added prior to mass photometry

EGFP-tagged TRIP8b (1a), full-length mouse TRIP8b (splice variant 1a4) (from UniProt Q8C437 1-567) (natural protein)
stoichiometry N (TRIP8b per tetrameric HCN4) [1]: 4

B1: rabbit HCN4 carrying an internal deletion (from residues 783 to 1064) (natural protein, UniProt Q9TV66 1-1175, looked up)
chain: MDKLPPSMRKRLYSLPQQVGAKAWIMDEEEDAEEEGAGGRQDPRRRSIRLRPLPSPSPSPSAAAAAAGGAESRGAALGGAADGEGPARGAAKSSTNGDCRRFRGSLASLGSRGGGGGGGSTGGGSHGHLHDSAEERRLIAEGDASPGEDRTPPGLAAEPERPGAPAPPAASPPQVPSSCGEQRPADAAVKVEGGAAAGDQILPEAEARLGQAGFMQRQFGAMLQPGVNKFSLRMFGSQKAVEREQERVKSAGFWIIHPYSDFRFYWDLTMLLLMVGNLIIIPVGITFFKDENTTPWIVFNVVSDTFFLIDLVLNFRTGIVVEDNTDIILDPRRIKMKYLKSWFVVDFVSSIPVDYIFLIVETRIDSEVYKTARALRIVRFTKILSLLRLLRLSRLIRYIHQWEEIFHMTYDLASAVVRIVNLIGMMLLLCHWDGCLQFLVPMLQDFPDDCWVSLNNMVNNSWGKQYSYALFKAMSHMLCIGYGRQAPMGMSDVWLTMLSMIVGATCYAMFIGHATALIQSLDSSRRQYQEKYKQVEQYMSFHKLPPDTRQRIHDYYEHRYQGKMFDEESILGELSEPLREEIINFNCRKLVASMPLFANADPNFVTSMLTKLRFEVFQPGDYIIREGTIGKKMYFIQHGVVSVLTKGNKETKLADGSYFGEICLLTRGRRTASVRADTYCRLYSLSVDNFNEVLEEYPMMRRAFETVALDRLDRIGKKNSILLHKVQHDLSSGVSNYQENAIVQRIVQHDREMAHCARRAQATTPVAPAIWTPLIQAPLQAAQDLKLISASQPALPQDGAQTLRRASPHSSSGESVAALPPFPRAPGRPPGAGPGQHVTLTLPRKASSGSLPPPLSLFGPRAAPAGGPRLTAAPQREPGAKSEPVRSKLPSNL
notes: the extreme C-terminal SNL tripeptide is preserved; expected MW of the monomer 98.4 kDa; Cloned into the pCI vector; no tag is stated for HCN4; also called HCN4ΔC; modified HCN4 channels; source: HEK293-F, transiently co-transfected with TRIP8b; solubilised in detergent (LMNG-CHS), purified in complex with TRIP8b (Ni2+-NTA, Superose 6 SEC)
stoichiometry N [2]: 4
